Data published in patent US11098109B2, “Single-chain variable fragment anti-CD133 antibodies and uses thereof” (REGENTS OF THE UNIVERSITY OF MINNESOTA, priority 2010, dated 2021).

Experiments:
human prominin-1 = target: T1, human prominin-1 (Homo sapiens, UniProt O43490, DEL381-611); test: Soluble scFv ELISA; assay type: binding; conditions: for binding specificity in soluble scFv ELISA: scFv from culture medium and periplasmic space
T1 construct: His-tag (6xHis) (N); made in house
T1 sequence (O43490 with tags, fused parts or gaps DEL381-611): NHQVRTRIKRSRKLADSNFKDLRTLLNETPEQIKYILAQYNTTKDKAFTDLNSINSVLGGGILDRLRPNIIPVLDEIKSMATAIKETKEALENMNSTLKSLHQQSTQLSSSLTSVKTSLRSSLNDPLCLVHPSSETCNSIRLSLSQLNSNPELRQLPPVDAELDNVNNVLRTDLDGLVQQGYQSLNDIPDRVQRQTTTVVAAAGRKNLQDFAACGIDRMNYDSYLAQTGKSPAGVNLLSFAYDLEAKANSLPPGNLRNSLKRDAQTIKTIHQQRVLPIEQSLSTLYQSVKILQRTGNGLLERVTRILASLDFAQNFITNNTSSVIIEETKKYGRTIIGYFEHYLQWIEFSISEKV
Method: A single colony was picked from No. 11 DNA transformed Top10F′ E. coli LB-Amp plate in and used to inoculate 25 mL LB medium with 100 μg/mL Amp. The culture was shaken at 37° C. at 250 rpm overnight.
The 25 mL overnight culture was diluted to 500 mL LB containing Amp and was shaken at 37° C. at 250 rpm for about two hours until the OD600 reached 0.5 to 0.7. IPTG was added to a final concentration of 1 mM. The culture was shaken at 30° C. overnight.
The culture was centrifuged at 5.000 g for 20 minutes at 4° C. The supernatant was kept for ELISA.
The cell pellet was completely suspended with 50 mL ice-cold PBS containing protease inhibitors (1 mM PMSF), and was sonicated on ice in short bursts. The power setting was 7 min, 40% power cycle 5 (HD2200 W/MS 73). Triton X-100 was added to the cell lysate to a final concentration of 1% and was mixed gently for 30 minutes at room temperature to aid in solubilization of the fusion protein.
The mixture was centrifuged at 15,000 rpm (Heraeus #3334 rotor) for 30 minutes at 4° C., and the supernatant was taken for ELISA.
The 2 supernatants were diluted (one is from overnight culture supernatant, and the other is from overnight culture pellet) containing soluble mouse scFv with equal volume of 5% milk and were incubated for 10 minutes at room temperature.
100 μL of the diluted scFv was added to each well (coated with human prominin-1), and incubated for one hour at 37° C.
The plate was washed five times.
50 μL per well of diluted secondary antibody conjugate at 1:2.000 (HOURP-conjugated anti-HA, diluted in 5% milk) was added, and incubated for one hour at 37° C.
50 μL/well TMB substrate was added for detection, and incubated for 30 minutes at room temperature.
Soluble scFv ELISA was performed to confirm the binding specificity to the target protein. Here, the expressed scFv was captured by human prominin-1 pre-coated plate, and the binding of the soluble scFv fused with HA tag was detected with anti-HA Ab-HOURP conjugate. […] Supernatant and pellet are test samples. PC means positive control, hybridoma secreted antibody (diluted at 1:2000) was used. BLK means blank.

CD133 = target: T2, CD133 (Homo sapiens, UniProt O43490); test: Flow cytometry specificity test on U87, CD133-transfected U87, Caco-2 and GBM6 cells; assay type: binding
T2 construct: endogenous in cells
T2 sequence (O43490 20-865): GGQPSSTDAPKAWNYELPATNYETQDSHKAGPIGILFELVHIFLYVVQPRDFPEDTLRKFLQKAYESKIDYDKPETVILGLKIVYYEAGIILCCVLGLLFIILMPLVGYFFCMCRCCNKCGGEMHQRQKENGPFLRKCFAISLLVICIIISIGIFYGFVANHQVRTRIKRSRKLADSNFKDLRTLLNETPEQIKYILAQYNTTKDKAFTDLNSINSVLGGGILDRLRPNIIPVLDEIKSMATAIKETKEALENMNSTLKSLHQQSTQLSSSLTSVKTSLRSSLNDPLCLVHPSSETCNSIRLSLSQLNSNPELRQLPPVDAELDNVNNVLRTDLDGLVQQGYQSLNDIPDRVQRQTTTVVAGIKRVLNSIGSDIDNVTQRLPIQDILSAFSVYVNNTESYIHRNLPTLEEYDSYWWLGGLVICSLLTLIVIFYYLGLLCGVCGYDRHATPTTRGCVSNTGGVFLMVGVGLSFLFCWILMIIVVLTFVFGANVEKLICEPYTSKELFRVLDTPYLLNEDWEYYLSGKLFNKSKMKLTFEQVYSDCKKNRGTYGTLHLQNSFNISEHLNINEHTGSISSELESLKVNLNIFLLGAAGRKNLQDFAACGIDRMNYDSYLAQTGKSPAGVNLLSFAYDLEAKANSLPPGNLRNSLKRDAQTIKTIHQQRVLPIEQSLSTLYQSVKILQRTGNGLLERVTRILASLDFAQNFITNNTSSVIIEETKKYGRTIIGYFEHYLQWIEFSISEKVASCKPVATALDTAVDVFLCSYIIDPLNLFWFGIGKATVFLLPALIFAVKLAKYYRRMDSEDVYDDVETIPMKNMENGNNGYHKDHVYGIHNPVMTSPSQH
Method: FIG. 3: Specificity of antibody produced by Hybridoma Clone 7. (A) Flow cytometry. Cells were incubated with primary antibody from either Hybridoma Clone 7 or 293C3 (Militenyi), followed by incubation with a labeled secondary antibody, and then analyzed by flow cytometry. Antibody from the newly developed anti-CD133 Hybridoma Clone 7 (open black histogram) stains very specifically the CD133-overexpressing cells, Caco-2 (iii), GBM6 (iv) and U87 cells transfected with CD133 (ii) but not CD133 negative U87 cells (i). Immunostaining using the monoclonal antibody produced by Hybridoma Clone 7 is compared to clone 293C3 (open grey histogram). Isotype control is represented by solid grey histogram. (B) Tunicamycin mediated glycosylation inhibition. Caco-2 cells were treated with increasing doses of tunicamycin (2.5, 5, 10, 20 μg/ml) for 3 days. DMSO treated cells or untreated cells served as controls. Cells were lysed and then analyzed by Western blotting using the monoclonal antibody produced by Hybridoma Clone 7 or GAPDH antibodies.
CD133-IRES GFP or CMV GFP constructs were transfected into U87 cells using FuGENE HD transfection reagent according to the manufacturer's instructions. Briefly, cells were plated in a 10 cm dish. Twelve hours later, 10 μg of the pDNA was diluted in serum-free growth DMEM and mixed with 40 μl of the transfection reagent. Following incubation for 15 minutes, the transfection mix was added to the cells. Forty-eight hours later, cells were harvested using non-enzymatic cell dissociation buffer (Sigma-Aldrich Corp., St. Louis, Mo.) for flow cytometry.
Primary human glioblastoma GBM6 cells, U87, or Caco-2 cells were washed three times and suspended in 100 μl of PBS. […] Cells were further incubated with 10 μl of anti-mouse hylite 647 (1:40 dilution; American Qualex, San Clemente, Calif.) for 30 minutes at 4° C., washed three times, and analyzed by flow cytometry.

Molecule	A450, Supernatant (human prominin-1; culture supernatant of Top10F' E. coli)	A450, Pellet (human prominin-1; lysate of culture pellet (periplasmic space))	binding specificity in soluble scFv ELISA (human prominin-1)	binding specificity in soluble scFv ELISA (human prominin-1; listed as Recombinant Clone 11 scFv)	A450, Positive Control (human prominin-1; hybridoma secreted antibody diluted at 1:2000)	flow cytometry staining of non-transfected U87 cells (CD133; CD133^low/- U87 cells)	flow cytometry staining of cells that endogenously express CD133 (CD133; Caco-2 and GBM6 cells)	flow cytometry staining of CD133-transfected U87 cells (CD133; U87 transfected with human CD133 cDNA)
No. 11 scFv: soluble scFv of the Hybridoma Clone 7 antibody expressed in E. coli Top10F', SEQ ID NO:58; also used FITC-labeled (protein, optionally FITC-labeled; scFv polypeptide) scFv: MDIVLSQSPAIMSASPGEKVTISCSASSSVSYMYWYQQKPGSSPKPWIYRTSNLASGVPARFSGSGSGTSYSLTISSMEAEDAATYYCQQYHSYPPTFGAGTKLELKSSGGGGSGGGGGGSSRSSLEVKLVESGPELKKPGETVKISCKASGYTFTDYSMHWVNQAPGKGLKWMGWINTETGEPSYADDFKGRFAFSLETSASTAYLQINNLKNEDTATYFCATDYGDYFDYWGQGTTLTVSS	0.9	1.4	confirmed specific for human prominin-1 protein	specific for human CD133	–	–	–	–
Hybridoma Clone 7: monoclonal antibody produced by Hybridoma Clone 7 that specifically binds to human CD133 (antibody, V domains shown) VL: DIVLSQSPAIMSASPGEKVTISCSASSSVSYMYWYQQKPGSSPKPWIYRTSNLASGVPARFSGSGSGTSYSLTISSMEAEDAATYYCQQYHSYPPTFGAGTKLELK VH: LEVKLVESGPELKKPGETVKISCKASGYTFTDYSMHWVNQAPGKGLKWMGWINTETGEPSYADDFKGRFAFSLETSASTAYLQINNLKNEDTATYFCATDYGDYFDYWGQGTTLTVSS	–	–	–	–	1.9	did not appreciably stain	able to immunostain	labeled CD133-transfected cells
